Assay results published in the Human Domainome abundance scans (Beltran et al. 2025).

B1: Tripartite motif-containing protein 49C, residues 87 to 133; numbered along this chain, P0CI26 (parent)
chain: SSEEQMCGTHRETKKIFCEVDRSLLCLLCSSSQEHRYHRHRPIEWAA

Variants of: B1
Assay: abundance fitness (aPCA) (normalised: wild type 0, dead -1); higher = more abundant; growth selection in yeast, the domain comes from the species named
Settings: Homo sapiens

Abundance fitness, by site and new letter:
R36: G -0.454 | V -0.213 | D 0.001 | W -0.66 | K -0.15 | T 0.001
I43: Y 0.335 | E 0.24 | S -0.011 | P -0.524 | M -0.37 | W -0.395
K15: R -0.415 | N 0.201 | S -0.147 | V -0.408 | C -0.382 | A -0.337 | F -0.32 | D -0.571 | E 0.037
R39: A -0.103 | Y -0.328 | F -0.356 | L -0.172 | G -0.253 | E 0.203 | V -0.092 | Q 0.045
T9: G -0.556 | C -0.565 | P -0.503 | H -0.153 | K 0.185 | A -0.235
M6: F -0.769 | Y -0.344 | K -0.581 | R -0.338 | G -0.553 | W -0.651 | V -0.21 | N -0.958
T13: I 0.046 | Y -0.277 | K -0.224 | E -0.028 | W -0.436 | M 0.242 | N -0.431 | P 0.313 | L -0.21 | R -0.128 | S -0.081
C26: H -0.962 | E -0.806 | D -0.118 | Y -1.15 | A -0.891 | G -0.734 | K -0.894
E4: F -0.59 | K -0.502 | A -0.224 | S -0.244 | D -0.035 | C -0.591 | T 0.02
E19: K -0.66 | V -0.586 | I -0.5 | W -0.647 | S -0.452 | Q -0.368 | N -0.433 | L -0.651 | M -0.585 | T -0.512 | Y -0.737 | F -0.927
C18: A -0.907 | I -0.783 | M -0.674 | F -0.802 | Q -0.731 | G -0.821 | S -0.327 | D -0.669
E34: L -0.659 | R -0.557 | F -0.748 | S -0.281 | P -0.834 | W -0.928 | D 0.041
H40: D -0.083 | G -0.468 | S -0.298 | W -0.608 | K -0.908 | R -0.563 | V -0.439 | N -1.27 | L -0.551 | Y -0.888 | T -0.849
R41: Y -0.659 | Q 0.09
E12: Y -0.092 | W -0.439 | M -0.117 | K 0.265 | F -0.035 | V -0.072 | C -0.01 | L 0 | P -0.671 | H -0.228
S30: P -0.622 | D -0.288 | A 0.203 | Y -0.407 | K -0.72 | I -0.435 | V -0.257 | F -0.776 | Q -0.665 | N -0.555
R11: T -0.135 | G -0.069 | W -0.36 | A -0.134 | Q -0.246 | C -0.008 | M -0.48
E3: M -0.275 | T -0.487 | H -0.246 | F -0.346 | R -0.213
A46: V -0.203 | P 0.2 | Q -0.085 | T 0.194 | E -0.076 | L -0.039 | H -0.276
K14: M -0.199 | V -0.33 | L -0.247 | A -0.029 | P -0.431
I16: Q -0.468 | F -0.325 | Y -0.077 | C -0.384 | R -0.497 | N -0.677 | D -0.392 | G -0.554
H35: E -0.997 | T -0.929 | Q -1.09 | W -0.846 | I -0.882 | F -0.75 | G -0.769
